Data set [1] relates to BER− cells. As to the kind of experiment: q-PADDA quantification of in vivo induced DNA damage in BER− cells in logarithmic phase. The data set is classed as cell-based, Saccharomyces cerevisiae. The conditions noted are these: BER− yeast cells (FIG. 4A, 4B). The protocol:
We quantified induced DNA damage after in vitro and/or in vivo exposure to a dose escalation of H2O2 (1 μM to 500 mM) and methyl methanosulfonate (MMS) (1 mM to 1 M). For in vitro assays, a 1,750 bp fragment of the CAN1 gene was amplified by PCR and cloned into the pJET1.2 vector (Fermentas, Glenn Burie, Md.) using standard protocols. Plasmid DNA was sequence verified, extracted using CsCl and dialyzed overnight against 500 ml H2O. Five μg of dialyzed DNA were treated with H2O2 in the presence of 0.3 M sucrose and 100 μM Fe^2+ as described (84), or with MMS in water (85). Treated DNA was recovered by ethanol precipitation. […] For high-throughput damage quantification, the highly purified streptavidin bound extended products were re-suspended in 50 μl TE and amplified by Real-Time PCR using one of 2 Real-Time PCR detection Systems: IQ5 Real-Time PCR detection System or Qx100 digital droplet PCR system.
For the IQ5 Real-Time PCR detection System using Sybr Green, reactions were carried out in an in a 25 μl final volume with PCR buffer (40 mM Tricine-KOH (pH 8.0), 16 mM KCl, 3.5 mM MgCl2, 3.75 μg/ml bovine serum albumin), 1:75,000 dilution SYBR Green I (Invitrogen), 0.8 mM total dNTPs (Fermentas), 0.7 units JUMPSTART Taq polymerase (Sigma), 0.32 μM each oligo, and 1/32 of total extended product pool. […] The long fragment (513 to 628 bases) was used to assess damage quantification. […]

The subject of data set [2] is CAN1 gene. Nature of the data set: q-PADDA quantification of induced DNA damage after in vitro exposure of cloned CAN1 plasmid DNA. It is filed as biochemical, Saccharomyces cerevisiae. The protocol:
We quantified induced DNA damage after in vitro and/or in vivo exposure to a dose escalation of H2O2 (1 μM to 500 mM) and methyl methanosulfonate (MMS) (1 mM to 1 M). For in vitro assays, a 1,750 bp fragment of the CAN1 gene was amplified by PCR and cloned into the pJET1.2 vector (Fermentas, Glenn Burie, Md.) using standard protocols. Plasmid DNA was sequence verified, extracted using CsCl and dialyzed overnight against 500 ml H2O. Five μg of dialyzed DNA were treated with H2O2 in the presence of 0.3 M sucrose and 100 μM Fe^2+ as described (84), or with MMS in water (85). Treated DNA was recovered by ethanol precipitation. For in vivo induced DNA damage assays, BER− cells in logarithmic phase were treated with varying doses and times of MMS as described (85). For a control, cells were treated with water in place of MMS. Genomic DNA was extracted as described above, except MMS concentration was kept constant during spheroplasting. […] Control samples were processed as treated samples except water was added in place of the specific genotoxic. Experiments were repeated at least in triplicate. For high-throughput damage quantification, the highly purified streptavidin bound extended products were re-suspended in 50 μl TE and amplified by Real-Time PCR using one of 2 Real-Time PCR detection Systems: IQ5 Real-Time PCR detection System or Qx100 digital droplet PCR system.
For the IQ5 Real-Time PCR detection System using Sybr Green, reactions were carried out in an in a 25 μl final volume with PCR buffer (40 mM Tricine-KOH (pH 8.0), 16 mM KCl, 3.5 mM MgCl2, 3.75 μg/ml bovine serum albumin), 1:75,000 dilution SYBR Green I (Invitrogen), 0.8 mM total dNTPs (Fermentas), 0.7 units JUMPSTART Taq polymerase (Sigma), 0.32 μM each oligo, and 1/32 of total extended product pool. Amplification was monitored and analyzed by measuring the intercalation of the fluorescent dye to double-stranded DNA according to the manufacturer's instructions. To quantify damage on each strand of the yeast CAN1 gene, two fragments of different lengths located in the same genomic region were amplified. The long fragment (513 to 628 bases) was used to assess damage quantification. The short fragment (67 to 68 bases), representing undamaged DNA, was used as an internal normalization control. The PCR conditions for the different fragments were optimized to achieve similar amplification efficiencies required to compare different amplicons. All products were amplified under the following conditions: 95° C., 3 min; 40 cycles (95° C., 15 s; 63° C., 40 s). Each sample was assayed in at least three independent experiments, each with at least four wells per sample, from three separate yeast cultures and DNA extractions. […]

Data set [3] has as its system naked DNA. Nature of the data set: PADDA detection of cytosine deamination after exposure of naked DNA to serial dilutions of sodium bisulfite. It is filed as biochemical. Conditions: serial dilutions (FIG. 6).
Data set [4] addresses T1, Vent exo− (Thermococcus litoralis, UniProt P30317, D141A/DEL1082-1471/DEL495-1032/E143A).
T1 construct: Vent exo−, a truncated form of a native DNA polymerase (Vent, NEB); purchased NEB
Nature of the data set: f-PADDA primer extension on synthetic oligonucleotides containing a single engineered lesion. The data set is classed as biochemical. Conditions: for lesion detected in primer extensions (sensitivity of PADDA): engineered lesion in 64 base template, at least 20 independent events per lesion; for Lesion Bypass with Misincorporation (LBM): misincorporation without replicative arrest; for Stops with Misincorporation (SMs): replicative arrest with misincorporation opposite the damaged base; for Stops: replicative arrest without misincorporation; for lesion acting as Vent exo− blocking lesion: share of all primer extensions. The protocol: A single non-cycled primer-extension reaction in the region of interest was performed to screen for DNA damage. It will be understood that the presently disclosed and claimed inventive concepts are not limited to these oligonucleotides. For damage detection in synthetic DNA, we prepared a 22.8 μl primer extension reaction containing 1× Thermopol buffer (NEB, Ipswich, Mass.), 0.2 mM each dNTP (Fermentas, Glen Burie, Md.), 20 pmol of a 5-biotin-tagged primer, and 20 pmol of a 64 base template containing either a synthetic abasic or 8-OxoG lesion, along with a control (undamaged oligo). To generate a pool of biotin-tagged extended products (FIG. 1A), the mix was incubated at 94° C. for 3 min, held at 85° C. to add 0.08 U of Vent exo− (NEB), and then incubated at 58° C. for 2 min (annealing), and 75° C. for 2 min (extension). For damage detection in genomic DNA, we used 500 ng of S. cerevisiae genomic DNA, 0.8 U of Vent exo−, and 2 pmol of a 5-biotin-tagged gene specific primer. A sample containing all reagents except Vent exo− was used as a negative control for all experiments. The non-cycled primer-extension contrasts with the multiple-cycle primer-extension reaction of previous assays, and generates a pool of highly specific biotin-tagged extended products (EPs), each of them derived from a single DNA molecule and strand (FIG. 1A). The use of a 5-biotin-tagged sequence specific primer allows for subsequent steps aimed at reducing the background of the technique. Vent exo−, a truncated form of a native DNA polymerase (Vent, NEB), was chosen for this assay instead of the currently used Sequenase (13) or Taq DNA polymerase (14), because of its reported high sensitivity to detect DNA damage (21) and primer-extension efficiency (22-24). To optimize primer-extension performance, Vent exo− units were adjusted to the complexity of the DNA being screened (22).
For the purpose of mapping strand-specific nucleotide damage (f-PADDA), the 3′-end of the highly purified extended products was attached to the 5′-end of a chemically modified adapter-primer using Thermophage single-stranded DNA ligase (Prokaria, Reykjavik, Iceland) [Currently Circligase I from Epicentre, Madison, Wis.]. Thermophage was chosen for this reaction because its efficiency for single-strand ligation is higher than that of T4 RNA ligase (25) used in some PCR-based assays. […] Purified extended-products were first washed with 20 μl of 1× Thermophage ssDNA ligase buffer and then resuspended in 3.7 μl of 1× Thermophage ssDNA ligase buffer. The ligation was performed as recommended by Prokaria except 1.5 μM adapter and 10 U ssDNA ligase in a final 10 μl volume were used under the following conditions: 55° C. for 1 h, 65° C. for 15 min, and 70° C. for 15 min. Then, samples were spun briefly and the supernatant removed as before in the presence of a magnet. The adapter-ligated extended-products were washed with 1 ml of 2× B&W buffer, and then incubated with 1 ml of 0.5 M NaOH for 5 min to completely remove free adapters and non-specifically bound DNA. Finally, the supernatant was discarded and the bound products were washed with 200 μl of 2× B&W buffer. The adapter-linked extended-products pool was then washed with 20 μl of 1× Phusion HF PCR buffer and amplified for 35-cycles using Phusion Hot-Start DNA Polymerase (Finnzymes), an oligonucleotide complementary to the adapter-primer and a nested gene-specific primer according to the manufacturer's instructions. Phusion Hot-Start DNA Polymerase has the highest available accuracy (error rate=4.4×10^−7) and generates blunt-end products. After PCR amplification, the supernatant was collected under a magnetic field for use in cloning (CLONE JET PCR cloning kit, Fermentas) and transformation following standard procedures. This cloning strategy yields 99% of clones positive for a cloned insert. […]

The results in this text go back to patent US20130040825A1, “DNA DAMAGE DETECTION ASSAY AND METHOD” (priority 2011, published 2013).

T1 sequence (P30317 other isoform, or with tags, fused parts or gaps D141A/E143A/DEL495-1032/DEL1082-1471): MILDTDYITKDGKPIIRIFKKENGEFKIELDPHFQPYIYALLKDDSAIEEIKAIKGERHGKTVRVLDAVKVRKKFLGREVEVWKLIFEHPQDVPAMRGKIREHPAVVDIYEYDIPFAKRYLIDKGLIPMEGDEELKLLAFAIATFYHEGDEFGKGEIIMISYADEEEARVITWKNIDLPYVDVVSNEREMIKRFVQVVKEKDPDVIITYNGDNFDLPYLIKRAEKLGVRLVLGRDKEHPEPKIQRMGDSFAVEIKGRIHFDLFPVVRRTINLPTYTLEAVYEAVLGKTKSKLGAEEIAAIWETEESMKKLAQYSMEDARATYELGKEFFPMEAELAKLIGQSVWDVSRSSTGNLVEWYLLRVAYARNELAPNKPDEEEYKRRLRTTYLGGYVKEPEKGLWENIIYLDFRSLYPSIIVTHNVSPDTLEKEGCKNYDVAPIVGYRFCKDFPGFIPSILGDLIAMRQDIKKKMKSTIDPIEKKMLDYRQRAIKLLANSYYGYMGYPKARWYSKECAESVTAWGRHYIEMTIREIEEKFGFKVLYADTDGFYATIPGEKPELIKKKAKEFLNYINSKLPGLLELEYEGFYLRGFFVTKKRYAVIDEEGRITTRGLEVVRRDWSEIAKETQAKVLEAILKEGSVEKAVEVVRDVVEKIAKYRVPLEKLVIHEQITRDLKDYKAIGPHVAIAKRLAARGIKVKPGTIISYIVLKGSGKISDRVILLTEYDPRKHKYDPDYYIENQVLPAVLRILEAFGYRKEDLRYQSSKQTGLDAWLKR

Turning to `COS(C)(=O)=O` [MMS, methyl methanosulfonate], the “in vivo DNA damage induced by dose escalation or by increase in exposure time” value in data set [1] is “increase in in vivo DNA damage”. For the same molecule, the “in vitro DNA damage induced by dose escalation” value in data set [2] (dose escalation (FIG. 5)) is listed as “increase in in vitro DNA damage”.

With `OO` [H2O2, Hydrogen peroxide], the “total CAN1 DNA damage compared to the control” value in data set [2] (each dose escalation from 1 μM to 500 mM) is given as “significant increase in total CAN1 DNA damage”. Besides, the “lowest dose giving a significant increase in damage, NTS” value in data set [2] (non-transcribed strand of CAN1, p<0.005) turned out to be 1 µM. The “lowest dose giving a significant increase in damage, TS” value in data set [2] (transcribed strand of CAN1, p<0.005) came to 10 µM.

Turning to `O=S([O-])O.[Na+]` [sodium bisulfite], the “DNA change induced in naked DNA” value in data set [3] is on record as “deamination of unmethylated cytosines to uracil”.

B1: Abasic sites: 64 base synthetic template oligonucleotide with a single abasic site (dSpacer tetrahydrofuran analog) (nucleic acid)
DNA: CCACTCTCCATGCACATAACAGACTTGGCTCACCTGCACTCAGGAAGCCCAGGTGGAAGCCAT
modifications: abasic tetrahydrofuran site, further chemistry not given here
Consider B1, for which, in data set [4], the “lesion detected in primer extensions (sensitivity of PADDA)” value (“lesion detected in primer extensions” below) was determined as 100%, the “Lesion Bypass with Misincorporation (LBM)” value amounted to 5%, the “Stops with Misincorporation (SMs)” value turned out to be 50% and the Stops stood at 45%. Further, the “lesion acting as Vent exo− blocking lesion” value (from here on “lesion acting”) in data set [4] is 95%.

B2: 8-OxoG lesion: synthetic template oligonucleotide containing a single 7,8-dihydro-8-oxo-2′-deoxyguanosine (8-oxo-dG) (nucleic acid)
DNA: CCACTCACCNTGCACATAACAGACTTGGCTGTCCCAGACTGCAGGAAGCCCAGGTGGAAGCCAT
modifications: 8-oxo-dG lesion, chemistry not fully specified
With B2, in data set [4], the “Bypass by Vent exo− without misincorporation” value worked out at 15%, the “lesion detected in primer extensions” value amounted to 85%, the “Lesion Bypass with Misincorporation (LBM)” value was determined as 62% and the “Stops with Misincorporation (SMs)” value is on record as 15%. For the same molecule, in data set [4], the Stops came out at 8% and the “lesion acting” value is given as 23%.

B3: thymine glycol lesion: synthetic template oligonucleotide containing a single 5R,6S-dihydroxy-5,6-dihydrothymine (thymine glycol) (nucleic acid)
DNA: CCACTCACCGGCACATAACAGACTTGGCTGTCCCAGACTGCAGGAAGCCCAGGTGGAAGCCAT
modifications: thymine glycol lesion, further chemistry not given here
With B3, in data set [4], the “lesion detected in primer extensions” value is listed as 67%.

B4: 8-oxo-dA lesion: synthetic template oligonucleotide containing a single 7,8-dihydro-8-oxo-2′-deoxyadenosine (8-oxo-dA) (nucleic acid)
DNA: CCACTCTCCATGCACATAACAGACTTGGCTGTGCNCGGTGCTCAGGAAGCCCAGGTGGAAGCCAT
modifications: 8-oxo-dA lesion, chemistry not fully specified
As for B4, in data set [4], the “lesion detected in primer extensions” value was 100%, the “Stops with Misincorporation (SMs)” value is on record as 10%, the Stops is 90% and the “lesion acting” value is 100%.
